Results taken from PMC8597880.

Assays:
Assay in all cases: BLI
[1] = molecular target: recombinant SARS-CoV-2 RBD B.1.1.7/N501Y (SARS-CoV-2, Alpha (B.1.1.7) RBD with N501Y)
[2] = molecular target: recombinant SARS-CoV-2 RBD B.1.351/K417N, E484K, N501Y (SARS-CoV-2, B.1.351 (Beta), RBD K417N, E484K, N501Y)
[3] = molecular target: recombinant SARS-CoV-2 RBD B.1.617.2/L452R, T478K (SARS-CoV-2, B.1.617.2 (Delta), RBD L452R, T478K)
[4] = molecular target: recombinant SARS-CoV-2 RBD P.1/K417T, E484K, N501Y (SARS-CoV-2, P.1 (Gamma), RBD K417T, E484K, N501Y)

NIH-CoVnb-112 (VHH)
Kd [1]: 3 nM | Kd [2]: 4.28 nM | Kd [3]: 1.66 nM | Kd [4]: 4.16 nM
